Patent US20210069342A1 (LEGOCHEM BIOSCIENCES, published 2021)

Experiments:
[1] = molecular target: T1, recombinant human ROR1-His (Sino Biological, 13968-H08H) (human, UniProt Q01973 30-406); assay: ELISA, wells coated with human ROR1 protein (sheet: 'human ROR1'; text: ROR1-Fc or ROR1-His), IgG titrated, HRP anti-Fab detection, OD (450-650nm)
T1 construct: extracellular domain; Bought protein; also called ROR1-HIS protein; not shown: His tag
Method: (§1) Anti-ROR1 antibody antigen binding affinity was assessed using an ELISA-based solution binding assay. Specifically, a 96-well microtiter plate (Nunc-Immuno Plates), NUNC) was coated for 16 hours at 4° C. with the ROR1 protein described below at a concentration of 1 in PBS solution, and non-specific binding sites were blocked for 2 hours with 3% BSA (bovine serum albumin). Here, the ROR1 protein used was, in the case of human ROR1, the ROR1-Fc or recombinant human ROR1-His (Sino Biological, 13968-H08H) of Embodiment 1. The ROR1-His used in ELISA, as stated in the above sentence, was a protein from the Sino Biological company (13968-H08H), and the ROR1-His of Embodiment 1 or recombinant mouse ROR1 protein was used (Acrobiosystems, RO1-M5221-100 )
(§2) Subsequently, the anti-ROR1 antibodies prepared in Embodiment 3 were added at the concentrations stated in FIG. 2 to a 96-well microtiter plate, and binding capacity was analyzed using ELISA as follows. Specifically, after incubating for 2 hours, the plate was washed 5 times with PBS containing 0.05% Tween 20, then HRP-conjugated Fab multiclonal antibody reagent (Perce, 31414) was diluted to 1:10,000 and placed in the washed microtiter plate. After reacting for 1 hour at 37° C., the ROR1 antibodies bonded to the plate were detected. After the reaction, color development was performed using TMB (Tetramethylbenzidine, Sigma, T0440). The enzymatic reaction was stopped using 0.5 mol/L sulfuric acid, and absorbance at 450 nm and 650 nm was measured (450 nm-650 nm) using a micro plate reader (Molecular Device)

[2] = molecular target: T2, human ROR1 expressed on the cell surface (human, UniProt Q01973 30-937); assay: flow cytometry on MC38-human ROR1 cells, IgG titrated, FITC anti-human Fc detection, MFI ratio to 2nd Ab alone; log axis whose first tick is printed 0
T2 construct: whole, on cells; also called cell surface-expressed ROR1 antigen; ROR1 on JeKo-1, Mino, CHO-human ROR1, MC38-human ROR1 and other cancer cell lines
T2 sequence (Q01973 30-937): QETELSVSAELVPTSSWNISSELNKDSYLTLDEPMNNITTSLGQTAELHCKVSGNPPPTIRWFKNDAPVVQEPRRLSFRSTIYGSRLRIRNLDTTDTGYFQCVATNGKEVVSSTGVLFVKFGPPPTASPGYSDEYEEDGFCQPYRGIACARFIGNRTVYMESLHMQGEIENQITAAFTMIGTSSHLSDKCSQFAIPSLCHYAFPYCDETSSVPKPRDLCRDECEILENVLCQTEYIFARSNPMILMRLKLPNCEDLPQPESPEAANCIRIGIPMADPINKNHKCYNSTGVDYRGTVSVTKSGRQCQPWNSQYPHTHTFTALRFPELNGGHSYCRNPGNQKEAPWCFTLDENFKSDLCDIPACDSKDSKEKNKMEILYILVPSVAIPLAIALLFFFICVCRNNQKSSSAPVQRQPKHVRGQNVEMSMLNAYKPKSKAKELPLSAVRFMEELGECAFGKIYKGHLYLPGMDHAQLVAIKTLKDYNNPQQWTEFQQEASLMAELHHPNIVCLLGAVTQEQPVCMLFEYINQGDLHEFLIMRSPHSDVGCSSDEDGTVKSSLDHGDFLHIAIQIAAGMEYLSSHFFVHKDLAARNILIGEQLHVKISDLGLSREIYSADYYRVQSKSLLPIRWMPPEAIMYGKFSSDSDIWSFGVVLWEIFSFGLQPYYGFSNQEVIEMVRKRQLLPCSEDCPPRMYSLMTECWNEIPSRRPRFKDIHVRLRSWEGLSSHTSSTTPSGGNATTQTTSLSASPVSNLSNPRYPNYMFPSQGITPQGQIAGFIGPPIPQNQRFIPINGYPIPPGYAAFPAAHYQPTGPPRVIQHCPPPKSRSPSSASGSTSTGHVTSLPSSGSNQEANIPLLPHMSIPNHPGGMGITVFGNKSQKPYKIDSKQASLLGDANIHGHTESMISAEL
Excerpt: (§3) For this experiment, using cell lines (FIG. 5 and FIG. 7, respectively) transiently (CHO-human ROR1, CHO-human ROR2, CHO-mouse ROR1) or stably (MC38-human ROR1) transfected with ROR1 gene to achieve artificial over-expression of ROR1 protein, an ROR1-expressing cell line (JeKo-1, Mino) (FIG. 6), a non ROR1-expressing cell line (MCF7) (FIG. 6) and a FACSCalibur (BD Biosciences) device was used to measure the degree to which anti-ROR1 antibody and ROR1 were bound, as follows. […] JeKo-1, Mino, CHO-human ROR1, CHO-mouse ROR1 and MC38-human ROR1 are all cell lines which express human ROR1 or mouse ROR1.
(§4) Specifically, after dissociating each cell line and washing in PBS, the number of cells was counted and adjusted to 2×10⁵ cells/200 PBS. Then the respective ROR1 monoclonal antibodies prepared in Embodiment 3 were diluted 5 times from 10 /mL or 10 /mL, then reacted for 1 hour at 4° C. After the reaction, the cells were washed in PBS, then FITC-marked constant region (Fc) specific antibody (Goat anti-human IgG FITC conjugate, Fc specific, Sigma, F9512, concentration 20 mg/ml) was suspended in 2 /1×10⁵ cells/200 PBS and reacted for 1 hour at 4° C. As for identification of the degree of expression of the transiently over-expressed human ROR1, human ROR2 and mouse ROR1, a commercially available FACS analysis antibody (anti-ROR1: R&D Systems, FAB 2000G, anti-ROR2: R&D, FAB20641P) was used. After reacting the cells were washed in PBS and analyzed using a FACSCalibur device. The negative control (2nd Ab) was only treated with FITC-marked constant region (Fc) specific antibody. The shifted readings for the respective experimental groups treated with ROR1 monoclonal antibody were compared against the shifted reading for the control group (MFI Ratio: MFI of anti-ROR1/MFI of 2nd Ab).

[3] = molecular target: T1, recombinant human ROR1-His (Sino …); assay: ELISA, wells coated with human ROR1 protein (sheet: 'human ROR1'; text: ROR1-Fc or ROR1-His), IgG titrated, OD(450nm-650nm); x axis 'conc(nM)' numbered -5 to 2 (log10)
Method: as §1, §2

[4] = molecular target: T3, human ROR2 over-expressed on CHO cells (CHO-human ROR2) (human, UniProt Q01974 34-943); assay: flow cytometry on CHO-S cells transiently over-expressing human ROR2, FITC anti-human Fc detection, MFI ratio to 2nd Ab alone
T3 construct: whole, on cells; Negative control; also called family protein human ROR2
T3 sequence (Q01974 34-943): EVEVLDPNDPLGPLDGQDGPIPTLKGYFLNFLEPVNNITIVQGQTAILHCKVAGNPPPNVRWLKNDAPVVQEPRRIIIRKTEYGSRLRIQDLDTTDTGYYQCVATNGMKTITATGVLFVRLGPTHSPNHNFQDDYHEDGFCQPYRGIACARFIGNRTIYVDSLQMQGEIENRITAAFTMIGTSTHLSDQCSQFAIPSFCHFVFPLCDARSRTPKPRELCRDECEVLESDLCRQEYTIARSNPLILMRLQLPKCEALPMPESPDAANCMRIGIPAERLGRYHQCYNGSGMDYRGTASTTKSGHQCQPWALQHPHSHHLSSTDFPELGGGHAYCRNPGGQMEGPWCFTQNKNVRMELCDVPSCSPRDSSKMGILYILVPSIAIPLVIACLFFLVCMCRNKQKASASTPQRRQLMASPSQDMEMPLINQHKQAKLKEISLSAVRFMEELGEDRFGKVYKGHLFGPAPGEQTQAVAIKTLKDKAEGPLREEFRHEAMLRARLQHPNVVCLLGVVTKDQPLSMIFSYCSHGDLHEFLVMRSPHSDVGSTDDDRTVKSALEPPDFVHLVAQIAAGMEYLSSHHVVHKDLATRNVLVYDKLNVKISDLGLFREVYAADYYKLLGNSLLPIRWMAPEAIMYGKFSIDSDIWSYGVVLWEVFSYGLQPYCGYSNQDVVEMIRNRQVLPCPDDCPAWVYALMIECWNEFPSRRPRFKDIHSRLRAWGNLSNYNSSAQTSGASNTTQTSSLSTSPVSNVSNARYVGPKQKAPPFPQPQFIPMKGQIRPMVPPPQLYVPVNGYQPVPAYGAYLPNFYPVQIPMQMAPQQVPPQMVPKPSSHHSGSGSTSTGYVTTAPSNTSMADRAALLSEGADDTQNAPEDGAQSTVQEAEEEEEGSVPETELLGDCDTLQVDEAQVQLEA
Excerpt: as §3, §4

[5] = molecular target: T1, recombinant human ROR1-His (Sino …); assay: BLI (Octet), ROR1-His on Anti-Penta-His or AR2G biosensor, IgG 30 to 0.021 nM, 1:1 fit
Method: A 96-well black microplate (greiner bio one) was mounted on a biosensor tray case, and 200 10×KB or DW was added to each of 8 wells. Then Anti Penta His biosensors or 8 AR2G biosensors (ForteBio, USA) were inserted to hydrate for 10 minutes. 600 of the assay samples were diluted 2-fold or 3-fold to the appropriate assay concentrations, using 1×KB or 10×KB to 30 to 0.021 nM. To immobilize the antigen, recombinant human ROR1-His (Sino Biological, 13968-H08H) was diluted to 1 /ML with 10×KB or Sodium Acetate pH5 buffer. Immobilization was fixed at a threshold of 0.3 nm in the loading step. The association assay was carried out for 3 to 10 minutes, and the dissociation assay was carried out for 20 minutes. According to the Octet program template, the buffer was placed in a new 96-well black microplate according to order. As Baseline1, 200 10×KB or DW was placed. Then 200 each of 1 /mL of the antigen to be loaded, the ROR1-HIS protein, was added. As Baseline2, 200 10×KB or 1×KB was placed. Then to each well 30 to 0.021 nM of the diluted antibody and 200 each of 10×KB buffer or 1×KB corresponding to a reference blank was added. The temperature of the test plate was fixed at 30° C. After all of the samples were introduced, the equipment was started, and after the assay was completed, results were uploaded to the Octet Analysis 90 software, with KD values analyzed through 1:1 fitting. By obtaining KD values through the Octet assay method, it was confirmed that the anti-ROR1 antibody had strong binding potential to ROR1 antigen.

[6] = molecular target: T4, recombinant mouse ROR1 protein (Acrobiosystems, RO1-M5221) (mouse, UniProt Q9Z139 30-403); assay: ELISA, wells coated with recombinant mouse ROR1 protein, IgG titrated, HRP anti-Fab detection, OD (450-650nm)
T4 construct: Bought protein; also called mouse ROR1 antigen
T4 sequence (Q9Z139 30-403 limits assumed): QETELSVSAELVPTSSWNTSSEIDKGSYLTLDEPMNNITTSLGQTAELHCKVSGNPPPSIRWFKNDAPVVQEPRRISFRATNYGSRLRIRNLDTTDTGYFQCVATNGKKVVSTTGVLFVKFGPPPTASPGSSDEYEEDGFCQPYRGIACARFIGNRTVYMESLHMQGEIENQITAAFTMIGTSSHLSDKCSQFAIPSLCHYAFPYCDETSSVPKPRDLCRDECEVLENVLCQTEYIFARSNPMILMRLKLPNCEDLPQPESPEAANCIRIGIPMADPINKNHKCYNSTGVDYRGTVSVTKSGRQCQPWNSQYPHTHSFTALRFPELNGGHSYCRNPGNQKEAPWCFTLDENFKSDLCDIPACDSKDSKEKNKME
Method: as §1, §2

[7] = molecular target: T5, mouse ROR1 over-expressed on CHO cells (CHO-mouse ROR1) (mouse, UniProt Q9Z139 30-937); assay: flow cytometry on CHO-S cells transiently over-expressing mouse ROR1, FITC anti-human Fc detection, MFI ratio to 2nd Ab alone
T5 construct: whole, on cells; also called cell surface-expressed mouse ROR1
T5 sequence (Q9Z139 30-937): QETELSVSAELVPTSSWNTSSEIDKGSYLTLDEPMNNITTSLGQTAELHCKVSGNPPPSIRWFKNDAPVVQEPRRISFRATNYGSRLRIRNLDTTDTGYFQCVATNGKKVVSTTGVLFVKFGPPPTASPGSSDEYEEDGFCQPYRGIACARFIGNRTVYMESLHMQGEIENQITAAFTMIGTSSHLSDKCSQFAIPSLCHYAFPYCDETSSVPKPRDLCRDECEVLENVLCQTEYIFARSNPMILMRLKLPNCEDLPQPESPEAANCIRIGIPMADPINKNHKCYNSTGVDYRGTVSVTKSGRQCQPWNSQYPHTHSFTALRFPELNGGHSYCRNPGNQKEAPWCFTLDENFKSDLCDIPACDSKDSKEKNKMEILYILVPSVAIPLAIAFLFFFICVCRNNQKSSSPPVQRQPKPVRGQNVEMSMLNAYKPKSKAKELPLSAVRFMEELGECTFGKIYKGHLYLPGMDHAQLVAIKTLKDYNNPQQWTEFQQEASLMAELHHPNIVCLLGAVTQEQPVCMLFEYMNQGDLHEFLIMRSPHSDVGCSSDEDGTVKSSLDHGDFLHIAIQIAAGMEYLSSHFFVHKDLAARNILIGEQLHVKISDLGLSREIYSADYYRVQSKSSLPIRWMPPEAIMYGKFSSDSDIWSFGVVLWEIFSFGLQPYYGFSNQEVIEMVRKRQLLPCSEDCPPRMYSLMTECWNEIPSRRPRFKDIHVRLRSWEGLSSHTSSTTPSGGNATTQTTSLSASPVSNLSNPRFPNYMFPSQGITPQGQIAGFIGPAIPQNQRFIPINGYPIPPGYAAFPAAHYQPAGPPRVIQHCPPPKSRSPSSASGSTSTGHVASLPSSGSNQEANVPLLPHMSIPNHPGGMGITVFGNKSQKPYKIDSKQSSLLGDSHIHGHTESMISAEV
Excerpt: as §3
(§5) Specifically, after dissociating each cell line and washing in PBS, the number of cells was counted and adjusted to 2×10⁵ cells/200 PBS. Then the respective ROR1 monoclonal antibodies prepared in Embodiment 3 were diluted 5 times from 10 /mL or 10 /mL, then reacted for 1 hour at 4° C. […] After reacting the cells were washed in PBS and analyzed using a FACSCalibur device. […] The shifted readings for the respective experimental groups treated with ROR1 monoclonal antibody were compared against the shifted reading for the control group (MFI Ratio: MFI of anti-ROR1/MFI of 2nd Ab).

[8] = molecular target: T5, mouse ROR1 over-expressed on CHO cells …; assay: flow cytometry, CHO-mouse ROR1 cells
Excerpt: as §3, §4

[9] = molecular target: T3, human ROR2 over-expressed on CHO cells …; assay: flow cytometry, CHO-human ROR2 cells
Excerpt: as §3, §5

T1 sequence (Q01973 30-406): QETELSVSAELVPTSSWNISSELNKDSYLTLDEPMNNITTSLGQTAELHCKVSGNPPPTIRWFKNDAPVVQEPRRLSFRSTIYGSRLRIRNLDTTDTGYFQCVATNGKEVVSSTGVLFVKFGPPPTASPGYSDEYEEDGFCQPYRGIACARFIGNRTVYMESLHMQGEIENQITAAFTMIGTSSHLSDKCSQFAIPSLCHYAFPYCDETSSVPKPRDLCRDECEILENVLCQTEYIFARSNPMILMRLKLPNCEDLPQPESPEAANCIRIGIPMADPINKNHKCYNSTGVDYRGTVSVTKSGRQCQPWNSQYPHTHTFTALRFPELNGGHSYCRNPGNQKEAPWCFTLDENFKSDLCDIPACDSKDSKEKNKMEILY

EC50 (read off the curve) [1] [nM] | EC50 (read off the curve) [2] [µg/mL] | EC50 (read off the curve) [3] [nM] | binding result [4] | Kd [5] [nM] | koff [5] [s⁻¹] | kon [5] [M⁻¹ s⁻¹] | binding result [6] | binding result [7] | binding result [8] | binding result [9] | Binder
~0.2 | ~0.1 | ~0.05 | no binding | 0.0937 | 0.000231 | 2.47e+06 | binds | binds | – | – | anti-ROR1 IgG antibody BA6 (antibody, V domains shown, Full IgG form (human IgG1 constant region, lambda light chain), expressed in CHO-S cells) VH: EVQLLESGGGLVQPGGSLRLSCAASGFTFSNYDMSWVRQAPGKGLEWVSAIYHSGSSKYYADSVKGRFTISRDNSKNTLYLQMNSLRAEDTAVYYCARGGNGAWDTGFDYWGQGTLVTVSS VL: QSVLTQPPSASGTPGQRVTISCSGSSSNIGSNDVSWYQQLPGTAPKLLIYYDNNRPSGVPDRFSGSKSGTSASLAISGLRSEDEADYYCGAWDDSLSGYVFGGGTKLTVLG
~0.3 | – | – | – | 0.754 | 0.000551 | 731000 | binds | – | binds | no binding | anti-ROR1 IgG antibody CC9 (antibody, V domains shown, Full IgG form (human IgG1 constant region, lambda light chain), expressed in CHO-S cells) VH: EVQLLESGGGLVQPGGSLRLSCAASGFTFSSYDMSWVRQAPGKGLEWVSGISHGSGNKYYADSVKGRFTISRDNSKNTLYLQMNSLRAEDTAVYYCAKRLSLRRRPSYYSDNAMDVWGQGTLVTVSS VL: QSVLTQPPSASGTPGQRVTISCTGSSSNIGNNAVNWYQQLPGTAPKLLIYYDSNRPSGVPDRFSGSKSGTSASLAISGLRSEDEADYYCGAWDDSLSGYVFGGGTKLTVLG
